Data taken from patent US8058228B2, “Leptin peptide antagonists” (Boston Biomedical Research Institute, priority 2004, dated 2011).

Molecular target: T1, OB-R (Homo sapiens, UniProt P48357)
T1 construct: After confirming via Western that the primary EEC and ESC and endometrial cell lines utilized herein had OB-R; endogenous in cells; host or cells: primary human EEC and ESC; Ishikawa (ECACC 9832301) and HES cell lines
T1 sequence (P48357 22-1165): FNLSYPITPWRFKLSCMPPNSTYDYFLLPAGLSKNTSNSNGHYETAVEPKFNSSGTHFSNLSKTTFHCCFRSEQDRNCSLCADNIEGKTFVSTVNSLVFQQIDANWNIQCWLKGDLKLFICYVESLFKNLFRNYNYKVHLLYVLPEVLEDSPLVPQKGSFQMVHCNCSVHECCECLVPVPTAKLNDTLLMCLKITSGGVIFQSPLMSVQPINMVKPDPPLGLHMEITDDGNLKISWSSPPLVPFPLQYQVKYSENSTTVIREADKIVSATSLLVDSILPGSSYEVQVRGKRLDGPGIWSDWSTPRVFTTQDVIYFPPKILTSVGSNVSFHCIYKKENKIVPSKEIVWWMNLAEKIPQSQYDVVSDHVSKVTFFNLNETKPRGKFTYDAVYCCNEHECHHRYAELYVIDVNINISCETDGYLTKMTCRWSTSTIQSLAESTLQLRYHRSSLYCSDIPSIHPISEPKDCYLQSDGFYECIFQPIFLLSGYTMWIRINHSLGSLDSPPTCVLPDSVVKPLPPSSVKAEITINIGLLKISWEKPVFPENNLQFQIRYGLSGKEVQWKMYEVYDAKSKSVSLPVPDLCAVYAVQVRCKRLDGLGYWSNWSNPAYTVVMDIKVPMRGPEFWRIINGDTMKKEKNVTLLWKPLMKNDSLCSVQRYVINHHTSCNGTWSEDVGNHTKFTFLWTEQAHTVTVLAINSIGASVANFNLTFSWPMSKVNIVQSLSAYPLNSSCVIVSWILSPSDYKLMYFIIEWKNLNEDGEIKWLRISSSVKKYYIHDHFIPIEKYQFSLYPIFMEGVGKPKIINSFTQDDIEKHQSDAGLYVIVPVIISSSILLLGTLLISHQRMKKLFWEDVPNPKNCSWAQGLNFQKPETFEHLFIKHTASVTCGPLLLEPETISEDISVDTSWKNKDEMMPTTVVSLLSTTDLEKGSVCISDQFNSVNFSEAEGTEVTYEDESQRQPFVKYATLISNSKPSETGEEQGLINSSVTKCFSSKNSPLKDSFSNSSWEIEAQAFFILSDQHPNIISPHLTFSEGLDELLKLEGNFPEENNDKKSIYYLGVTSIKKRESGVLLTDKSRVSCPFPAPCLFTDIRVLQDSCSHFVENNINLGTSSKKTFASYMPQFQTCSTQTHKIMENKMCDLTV
Test: p-STAT3 levels in human endometrial cells (Western blot)
Format: cell-based
Details: for effect on leptin-induced increase of p-STAT3 levels: peptide 300 nM
Procedure: Primary human endometrial cells (ESC and EEC) were cultured for 5-9 days in DMEM-F12 medium containing 5% fetal bovine serum (FBS), 5 μg/ml insulin, 1% amphopthericin B, 100 μg/ml streptomycin and 100 U/ml penicillin until they were 80% confluent. Two types of endometrial epithelial cell lines, HES (originally derived from a benign proliferative endometrium) and Ishikawa (human endometrial epithelial adenocarcinoma, ECACC 9832301, Wiltshire, England) were cultured under the same conditions described above. The cells were washed twice with 100 mM phosphate saline buffer (PBS), pH 7.2 and cultured for additional 2 days in the same medium but without FBS (basal medium). Cells were washed as described before and cultured in basal medium containing leptin (0, 3, 10 or 62 nM) or IL-1β (0.6, 3 and 10 nM).
The anti-OB-R antibody (10 and 20 μg/ml) and LPA-2, a specific inhibitor of OB-R (3, 120, 300 nM or 30 μM) were used to assess whether leptin-induced effects were regulated primarily by the OB-R. Non-specific species-matched IgGs to the OB-R antibody and a scrambled version of LPA-2 (LPA-2Sc) served as negative controls (Gonzalez and Leavis, Endocrine 21: 185-195 (2003)). Inhibitors of IL-1R were used (monoclonal antibody anti-IL-1R tl and IL-1Ra) to assess whether leptin activated IL-1 induced signaling pathways or just activated similar components responsible for LIF/LIF-R expression. Treatment with the cytokine, inhibitor or the two combined was implemented for 5, 15, 30 and 60 min, and 24 and 48 h. The cells were prepared for Western blot analysis. The conditioned media was collected, lyophilized and stored at −80° C. until analysis for LIF, IL-1β and IL-1Ra by ELISA could be performed. Duplicate wells were run for each treatment and the experiments repeated at least three times with different cell preparations.
Endometrial cells were washed with ice-cold PBS and lysed by homogenization on ice with lysis buffer A [[…] Tris, pH 7.4, containing 137 nM NaCl, 2 mM EDTA, 10% glycerol, 50 mM β-glycerophosphate, 1% Nonidet P-40 and a mixture of proteases and phosphatase inhibitors composed of 100 μM antipain, 0.1 mg/ml trypsin inhibitor, protease inhibitor cocktail 1:50 (Sigma), 50 nM NaF, 2 mM phenyl-methylsulfonyl fluoride, and 2 mM sodium orthovanadate]. Cellular lysates were centrifuged at 2400 g at 4° C. for 10 min. For nuclear lysates the cells were scraped from the culture plates and homogenized with lysis buffer B (10 nM Tris, pH 7.4, 0.25 M sucrose, 0.1 mM EDTA containing the same mixture of protease and phosphatase inhibitors as buffer A). Protein concentrations were determined using the Bradford protein assay (BioRad Laboratories Inc., Hercules, Calif.).
30 μg of protein from nuclear or cellular lysates were incubated in ependorf tubes containing 0.5 μg of primary antibodies (anti-LIF-R, OB-R, STAT3 and p-STAT3 diluted in buffer A) for 2 h at 4° C. under constant stirring. The immuno-complexes were incubated with 20 μl of Protein G-Agarose (Amersham Pharmacia Biotech) diluted 1:1 with buffer A for a 2 additional hours under constant stirring. The beads were centrifuged for 1 min at 1000 g and washed with buffer A containing 0.5 M NaCl followed by a final wash with buffer A.
Cellular lysates and their immunoprecipitates containing 10-30 μg of protein plus Laemmli buffer (1:1) were incubated at 95° C. for 5 min. […]

p-STAT3 level compared to non-treated control cells (Ishikawa cells, LPA-2 treatment) | effect on leptin-induced increase of p-STAT3 levels (Ishikawa cells, leptin 62 nM) | p-STAT3 levels over non-treated controls after leptin (Ishikawa cells, leptin 62 nM) | p-STAT3 levels after leptin (primary EEC, leptin 10 and 62 nM, 5 min, nuclear extracts) | Substance
decrease level of p-STAT3 | inhibited the leptin-induced increase |  |  | SRNVIQISNDLENLRDLLHVLAFSKS [LPA-2, 26 amino acid peptide, residues 70-95 of helix III of the human leptin molecule; leptin peptide antagonist]
 | had no effect |  |  | VAEVLNRSDLIQRISFSLDLNNSKLH [LPA-2Sc, scrambled version of LPA-2, negative control, reference compound]
 |  | increased the levels of p-STAT3 | increase in the levels of p-STAT3 | leptin: human recombinant leptin (R&D Systems), OB-R ligand used as stimulus
